# Measured values from patent US20040091492A1.
# Tests used:
# [1] = molecular target: HLA-A1 on Hmy2.C1R-A1 transfectant cells with the OD 309 peptide (ornithine decarboxylase 309-317) (human); test: HLA stabilization assay, acid-stripped Hmy2.C1R-A1 cells with OD 309 peptide and BB7.5 mAb, flow cytometry
# [2] = molecular target: HLA-A2 on Hmy2.C1R-A2 transfectant cells with the HIV gag 77-85 peptide (human), A*02:0
# [3] = molecular target: HLA-A3 on Hmy2.C1R-A3 transfectant cells with the pn2a.A3 peptide (human)
# [4] = molecular target: HLA-A1 on Hmy2.C1R-A1 transfectant cells with the OD 309 peptide (ornithine decarboxylase 309-317) (human); test: competition with 2.5 µM myc-hβ2m on Hmy2.C1R-A1 cells with OD 309 peptide, 9E10 flow cytometry
# [5] = molecular target: HLA-A2 on Hmy2.C1R-A2 target cells pulsed with HTLV-1 TAX 11-19 peptide (human), A*02:0; test: cell-based or functional assay
# [6] = molecular target: HLA-A3 on Hmy2.C1R-A3 transfectant cells with the pn2a.A3 peptide (human); remark: listed apart in the source
substance,measurement,setting,value
hβ2m S55V (human β2-microglobulin with valine at position 55 of the mature protein) (from UniProt P61769 21-119),fold better stabilization than wild-type hβ2m,[1],2 fold
same,fold better inhibition of myc-hβ2m binding than wild-type hβ2m,[2],2.5 fold
same,fold better inhibition of myc-hβ2m binding than wild-type hβ2m,[3],2.5 fold
same,fold better inhibition of myc-hβ2m binding than wild-type hβ2m,[4],2.5 fold
same,fold more effective than wild-type hβ2m at enhancing target cell lysis (CTL lysis assay),[5],4 fold
same,fold better stabilization than wild-type hβ2m,[6],3 fold
